Assay results as given in the supplement of paper PMC7877785.
± gives the uncertainty stated by the source.

Experiment: self-splicing fitness, log relative to wild type (ln ratio); higher = more splicing; Tetrahymena group I intron in knt gene, E. coli kanamycin selection, DiMSum; sequences stand for … in CUCUCU…GGAGGGAAAAGUUAUCAGGCAUGCACCUGGUAGCUAGUCUUUAAACCAAUAGAUUGCAUCGGUUUAAAAGGCAAGACCGUCAAAUUGCGGGAAAGGGGUCAACAGCCGUUCAGUACCAAGUCUCAGGGGAAACUUUGAGAUGGCCUUGCAAAGGGUAUGGUAAUAAGCUGACGGACAUGGUCCUAACCACGCAGCCAAGUCCUAAGUCAACAGAUCUUCUGUUGAUAUGGAUGCAGUUCACAGACUAAAUGUCGGUCGGGGAAGAUGUAUUCUUCUCAUAAGAUAUAGUCGGACCUCUCCUUAAUGGGAGCUAGCGGAUGAAGUGAUGCAACACUGGAGCCGCUGGGAACUAAUUUGUAUGCGAAAGUAUAUUGAUUAGUUUUGGAGUACUCGUGGUCG
Outline: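 Six replicate transformations of E. coli BL21(DE3) with a pET-22b(+) library were grown overnight at 37°C or 30°C. The library randomised all eight P1ex-region intron nucleotides, the intron lying in the knt kanamycin-resistance gene, and plates were LB agar with or without 25 μg/mL kanamycin plus 100 μg/mL carbenicillin, 50 μM IPTG and 0.2% rhamnose. Pooled colonies were amplicon-sequenced on an Illumina HiSeq 2500, and fitness is the DiMSum error-weighted combination of wild-type-normalised replicate fold changes, kanamycin versus none.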

Row | Sequence | self-splicing fitness (ln) (30 °C) | self-splicing fitness (ln) (37 °C)
1 | CAGCAGCAAUAUUACGUCGC | -3.31 ± 0.18 | -2.21 ± 0.21
2 | GAUAAGCAAUAUUACGACCA | -1.18 ± 0.14 | -0.0759 ± 0.21
3 | UUAGAGCAAUAUUACGCGGG | -1.91 ± 0.13 | -0.56 ± 0.13
4 | UCCCAGCAAUAUUACGCGGG | -2.66 ± 0.12 | -3.36 ± 0.18
5 | CAUGAGCAAUAUUACGAUUC | -3.18 ± 0.21 | -1.66 ± 0.19
6 | AAUGAGCAAUAUUACGAACU | -1.11 ± 0.14 | -0.57 ± 0.16
7 | UUUAAGCAAUAUUACGGGUC | -3.19 ± 0.35 | -2.25 ± 0.35
8 | AACGAGCAAUAUUACGCGCC | -2.77 ± 0.3 | -2.61 ± 0.48
9 | UCGAAGCAAUAUUACGAUAU | -2.63 ± 0.31 | -1.52 ± 0.32
10 | CCGCAGCAAUAUUACGAUUG | -0.997 ± 0.085 | -0.816 ± 0.09
11 | AGCCAGCAAUAUUACGUCGA | -3.17 ± 0.17 | -2.88 ± 0.18
12 | GCCUAGCAAUAUUACGCCGC | -2.48 ± 0.36 | -1.5 ± 0.34
13 | UAACAGCAAUAUUACGCCCU | -1.18 ± 0.08 | 0.471 ± 0.12
14 | UGCUAGCAAUAUUACGCAAA | – | -0.861 ± 0.16
15 | UCCCAGCAAUAUUACGUGCA | -0.634 ± 0.06 | -0.597 ± 0.078
16 | GCCCAGCAAUAUUACGCGGC | -4.94 ± 0.39 | -2.51 ± 0.24
17 | ACAGAGCAAUAUUACGUAGA | -4.17 ± 0.37 | -2.19 ± 0.21
18 | UCCUAGCAAUAUUACGGGUG | -0.384 ± 0.07 | 0.124 ± 0.087
19 | CUACAGCAAUAUUACGCAUU | – | -2.83 ± 0.25
20 | GCACAGCAAUAUUACGACCU | -0.6 ± 0.11 | -0.325 ± 0.13

Row | Sequence | self-splicing fitness (ln) (30 °C) | self-splicing fitness (ln) (37 °C)
21 | CCCCAGCAAUAUUACGGAUG | -1.96 ± 0.064 | -1.08 ± 0.067
22 | GCAGAGCAAUAUUACGUCAG | – | -2.97 ± 0.29
23 | CUAAAGCAAUAUUACGUCCA | -3.01 ± 0.19 | -2.79 ± 0.31
24 | UUUGAGCAAUAUUACGGCGA | -1.09 ± 0.18 | -0.162 ± 0.19
25 | CGACAGCAAUAUUACGUCAU | -3.41 ± 0.24 | -1.54 ± 0.14
26 | UCGAAGCAAUAUUACGACGA | -0.904 ± 0.12 | -0.374 ± 0.11
27 | AACUAGCAAUAUUACGUUGA | -1.52 ± 0.11 | -1.04 ± 0.12
28 | CAAGAGCAAUAUUACGCUGU | -3.93 ± 0.36 | -2.34 ± 0.24
29 | UAUAAGCAAUAUUACGUUUC | -3.5 ± 0.38 | -2.43 ± 0.35
30 | GAAUAGCAAUAUUACGGCGG | -2.65 ± 0.18 | -0.799 ± 0.13
31 | GCGCAGCAAUAUUACGAAGA | -1.64 ± 0.13 | -0.808 ± 0.12
32 | GAGGAGCAAUAUUACGACGC | -0.403 ± 0.15 | 0.209 ± 0.14
33 | CAAAAGCAAUAUUACGUAUG | -2.89 ± 0.098 | -2.22 ± 0.13
34 | CUUAAGCAAUAUUACGAGGU | -1.3 ± 0.14 | -3.09 ± 0.26
35 | ACGGAGCAAUAUUACGCGCG | -2 ± 0.15 | -0.429 ± 0.14
36 | UGGAAGCAAUAUUACGCGUU | -4.13 ± 0.18 | -3.03 ± 0.26
37 | UAGUAGCAAUAUUACGACUG | 0.526 ± 0.14 | -0.333 ± 0.17
38 | UGACAGCAAUAUUACGGGAC | -4.05 ± 0.31 | -2.31 ± 0.22
39 | CCCUAGCAAUAUUACGAAGA | -2.34 ± 0.21 | -2.67 ± 0.26
